{"source": "paper PMC6445466", "binders": {"B1": {"name": "human C1r, full-length enzyme (enzyme)", "chain": "SIPIPQKLFGEVTSPLFPKPYPNNFETTTVITVPTGYRVKLVFQQFDLEPSEGCFYDYVKISADKKSLGRFCGQLGSPLGNPPGKKEFMSQGNKMLLTFHTDFSNEENGTIMFYKGFLAYYQAVDLDECASRSKSGEEDPQPQCQHLCHNYVGGYFCSCRPGYELQEDTHSCQAECSSELYTEASGYISSLEYPRSYPPDLRCNYSIRVERGLTLHLKFLEPFDIDDHQQVHCPYDQLQIYANGKNIGEFCGKQRPPDLDTSSNAVDLLFFTDESGDSRGWKLRYTTEIIKCPQPKTLDEFTIIQNLQPQYQFRDYFIATCKQGYQLIEGNQVLHSFTAVCQDDGTWHRAMPRCKIKDCGQPRNLPNGDFRYTTTMGVNTYKARIQYYCHEPYYKMQTRAGSRESEQGVYTCTAQGIWKNEQKGEKIPRCLPVCGKPVNPVEQRQRIIGGQKAKMGNFPWQVFTNIHGRGGGALLGDRWILTAAHTLYPKEHEAQSNASLDVFLGHTNVEELMKLGNHPIRRVSVHPDYRQDESYNFEGDIALLELENSVTLGPNLLPICLPDNDTFYDLGLMGYVSGFGVMEEKIAHDLRFVRLPVANPQACENWLRGKNRMDVFSQNMFCAGHPSLKQDACQGDSGGVFAVRDPNTDRWVATGIVSWGIGCSRGYGFYTKVLNYVDWIKKEMEEED"}}, "biological_target": "BAD16-C (residues 204-352, B. afzelii strain PGau) (Borrelia afzelii strain PGau)", "assay": "SPR; Biacore T200, 25°C; borrelial protein immobilised by amine coupling; C1r as analyte, single-cycle kinetics, five-fold dilution series 1.6 to 1000 nM; HBS-T with 5 mM CaCl2; 1:1 kinetic fit; triplicate", "data": [{"binder": "B1", "values": [{"measurement": "Kd", "result": 2.2, "unit": "nM"}, {"measurement": "koff", "result": "4.3e-05", "unit": "s⁻¹"}, {"measurement": "kon", "result": 19000, "unit": "M⁻¹ s⁻¹"}]}]}
